Results taken from PMC4046963.

Target: Neisseria gonorrhoeae MtrE outer membrane channel (Neisseria gonorrhoeae) (UniProt Q51006)
Experiment: crystal structure; sitting-drop vapor diffusion, 20% PEG 400, 0.2 M sodium acetate pH 4.6, 0.25 M MgSO4, 2% OG, 0.05% DDM; space group P6(3)22, one protomer per asymmetric unit; 3.29 Å

Substance: Neisseria gonorrhoeae MtrE outer membrane channel (from UniProt Q51006 1-467) (natural protein)
- stoichiometry N: 3
